From US20040213788A1 (published 2004) come the findings set out here.

Assay [1] addresses T1, soluble human RANKL protein (human, UniProt O14788 140-317, limits assumed, biotinylated at a 20:1 molar ratio of NHS-biotin to protein (in the competition ELISA only)).
T1 construct: Soluble form; Biotinylated in the ELISA, unlabelled in the cell assays; also called shRANKL; sRANKL
T1 sequence (looked up): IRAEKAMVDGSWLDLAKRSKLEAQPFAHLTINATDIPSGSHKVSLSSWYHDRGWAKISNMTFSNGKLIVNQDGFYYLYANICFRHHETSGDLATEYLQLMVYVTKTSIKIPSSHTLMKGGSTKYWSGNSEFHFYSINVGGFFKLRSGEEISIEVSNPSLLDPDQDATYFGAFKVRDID
In words: competition ELISA: inhibition of biotinylated shRANKL (0.43 nM) binding to coated RANK-Fc. An excerpt: (§1) A. A competition ELISA was established using a human RANK-Fc fusion protein coated on plastic and a biotinylated soluble human RANKL protein for detection in solution. The RANK-FC and RANKL proteins were produced in CHO cells and Pichia pastoris, respectively, and purified to >90% homogeneity. The shRANKL (soluble, human RANKL) protein was biotinylated at a 20:1 molar ratio of NHS-biotin to protein (Pierce, Rockford, Ill.) according to the manufacturer's specifications. 96-well ELISA plates were coated overnight at 4° C. with 50 ng/well ([…]) RANK-Fc in pH 9.6 carbonate-bicarbonate buffer. Plates were washed in pH 7.4 Tris-Saline buffer containing 0.1% Tween 20 and blocked for 2 h at RT in 1% BSA/PBS. Competitor proteins (RANK-Fc; death receptor 5 (DR5)-Fc; OPG-Fc; RANKL mAb 14F3) were diluted in 0.01% Tween 20/PBS and added to wells prior to the addition of biotinylated shRANKL (0.43 nM) and the combined samples were incubated for 2 hrs at room temperature. The amount of biotinylated shRANKL bound to coated RANK-Fc (+/−competitor) was measured using alkaline phosphatase conjugated streptavidin. The substrate for signal detection was 105 PNPP (Pierce Inc., Rockford, Ill.) and absorbence measured at 405 nm using a Spectra Max 340 plate reader.

Assay [2] has as its target T1, soluble human RANKL protein. The experiment in a line: cell-based or functional assay.
The target is the same in assay [3]. In words: competition ELISA: soluble RANK-Fc inhibits biotinylated shRANKL (0.43 nM) binding to coated RANK-Fc.
From the text: as §1
(An ELISA detects its analyte on a solid surface through an enzyme-linked reagent.)

For assay [4] the target is unchanged. In words: not described; paragraph 32 names optical biosensor analysis for Kd.

B1: OPG-Fc (Fc fusion, UniProt O00300 22-201, looked up)
chain: ETFPPKYLHYDEETSHQLLCDKCPPGTYLKQHCTAKWKTVCAPCPDHYYTDSWHTSDECLYCSPVCKELQYVKQECNRTHNRVCECKEGRYLEIEFCLKHRSCPPGFGVVQAGTPERNTVCKRCPDGFFSNETSSKAPCRKHTNCSVFGLLLTQKGNATHDNICSGNSESTQKCGIDVTL
notes: also called osteoprotegerin-Fc; not shown: Fc part; not described
As usually defined, the IC50 is the concentration that inhibits the measured activity by half. Turning to B1, the IC50 in assay [1] is around 0.5 nM.

B2: human RANK-Fc fusion protein (Fc fusion, UniProt Q9Y6Q6 30-212, looked up, not shown: a dimerising Fc or GST)
chain: IAPPCTSEKHYEHLGRCCNKCEPGKYMSSKCTTTSDSVCLPCGPDEYLDSWNEEDKCLLHKVCDTGKALVAVVAGNSTTPRRCACTAGYHWSQDCECCRRNTECAPGLGAQHPLQLNKDTVCKPCLAGYFSDAFSSTDKCRPWTNCTFLGKRVEHHGTEKSDAVCSSSLPARKPPNEPHVYLP
Regarding B2, the “IC50, formation of multinuclear cells (human monocyte osteoclastogenesis)” value in assay [2] is around 500 ng/mL. Further, the IC50 in assay [3] was around 6 nM.

B3: mouse monoclonal antibody 14F3 (antibody, V domains shown)
VH: EVQLVESGGDLVKPGGSLKLSCAASGFTFSRYGMSWVRQTPDKRLEWVATISSGGSYTYYPDSVKGRFTISRDNAKNTLYLQMSSLKSEDTAMYYCARLDGYNYRWYFDVWGTGTTVTVSS
VL: DIVMTQSHKFMSTSVGDRVSITCKASQDVSSAVAWYQQKPGQSPKLLIYSASYRYTGVPDRFTGSGSGTDFTFTISSVQAEDLAVYYCQQHYSSPRTFGGGTNLEIKR
notes: Whole mouse IgG2a/kappa purified from hybridoma; also called 14F3 mAb; RANKL mAb 14F3
One may read the Kd as the free concentration of one partner at which half of the binding sites on the other are occupied at equilibrium, for simple one-to-one binding. As for B3, the Kd in assay [4] was around 0.1 nM. In addition, the “IC50, formation of multinuclear cells (human monocyte osteoclastogenesis)” value in assay [2] was around 4000 ng/mL. Besides, the IC50 in assay [1] is around 2 nM.
